The target in assay [1] is T1, human CD40 extracellular domain (recombinant) (human, UniProt P25942 21-193).
T1 construct: Extracellular domain expressed in 293F cells; also called hCD40; CD40-His; not shown: tag (His, Avi-His, mouse Fc or human Fc)
The assay can be described thus: ELISA; CD40 extracellular domain coated 0.1 µg/well, antibody titrated from 10 µg/mL 1:3, anti-human IgG-HRP. Here is the method:
(§1) ELISA Binding Assay: The selected monoclonal full-length antibodies D1, D2, D3, D5, D6, or D7 were subjected to binding assays with CD40 extracellular domain of different species, respectively. The assay was designed to identify full-length antibodies that cross-reacted with CD40 of different species. Briefly, the human or Rhesus monkey CD40 prepared in example 1 was dissolved in PBS and coated on […] with 0.1 μg/well followed by incubation at 4° C. overnight. The 96-well plates were washed with TBST before adding antibodies, blocked with 5% milk for 1-2 h at 37° C., and washed again with TBST. Firstly, each antibody sample was diluted to 10 μg/mL, and then serially diluted at a 1:3 ratio. 100 μL of serially diluted antibodies were added to each well and incubated for 1 h at 37° C. After washing with TBST for 6 times, 100 μL of the secondary antibody (goat anti-human IgG-HRP (Sigma. A8667)) was added to each well and incubated for 1 h at 37° C. After washing with TBST for 3 times, TMB was added with 100 μL/well and incubated for 10-20 minutes at 37° C. 2M H₂SO₄ was used to stop the reaction and plates were read for the absorbance at 450 nm. The ELISA results were then analyzed and the binding curves were generated by PRISM.

Assay [2] concerns the target T2, Rhesus monkey CD40 extracellular domain (recombinant) (Rhesus monkey, UniProt F6SNI1 21-193).
T2 construct: extracellular domain; also called RheCD40
The assay is described as above. Here is the method: as §1

In assay [3] the target is T3, human CD40 on cells (human, UniProt P25942 21-277). The assay can be described thus: cell-based or functional assay.
For assay [4], the target named is T2, Rhesus monkey CD40 extracellular domain …. The assay can be described thus: ELISA, plate coated with recombinant rhesus monkey CD40 extracellular domain, antibody (human IgG4 format) in serial dilution, anti-human IgG-HRP, OD450. Here is the method:
as §1
(§2) The biding affinity of the optimized full length CD40 antibodies with human or rhesus monkey CD40 was evaluated by Elisa according to the corresponding protocol as described in Example 2, and ASKP1240 was used as control.

The target of assay [5] is T1, human CD40 extracellular domain …. The assay can be described thus: ELISA, plate coated with recombinant human CD40 extracellular domain, antibody (human IgG4 format) in serial dilution, anti-human IgG-HRP, OD450. Here is the method: as §1, §2
The target of assay [6] is T3, human CD40 on cells. The assay can be described thus: cell-based or functional assay. This is another data set of the same source.
The target of another assay is T4, human TNFR2 (human, UniProt P20333 23-257).
T4 construct: Bought protein coated on the ELISA plate; also called TNFR2 (Sino biological, 10417-h08h); INFR2
T4 sequence (looked up): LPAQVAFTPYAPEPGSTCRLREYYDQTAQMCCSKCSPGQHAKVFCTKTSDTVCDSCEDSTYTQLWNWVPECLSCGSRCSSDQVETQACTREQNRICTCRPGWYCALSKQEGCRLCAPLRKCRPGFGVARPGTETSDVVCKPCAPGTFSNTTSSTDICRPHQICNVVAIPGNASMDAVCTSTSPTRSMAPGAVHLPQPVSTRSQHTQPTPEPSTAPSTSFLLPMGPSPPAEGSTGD
The assay can be described thus: ELISA; protein coated, antibody titrated, anti-human IgG-HRP. Here is the method: (§3) The cross-reactivities between anti-CD40 antibodies and the protein homologous with CD40 were detected. It was well known that there is high sequence homology among TNFR superfamily members. When compared with CD40 sequence. TNFRSF11A (38.95% homology) and INFR2 (37.20% homology) are with the highest homology. The cross-reactions between the two proteins and anti-CD40 antibody were detected by ELISA. respectively. Briefly, human TNFRSF11A (Sino biological, 16078-h08h), human TNFR2 (Sino biological, 10417-h08h) or the human CD40 extracellular domain protein prepared in example 1 was coated on ELISA plate and incubated at 4° C. overnight, respectively. After serial dilution, the optimized full-length anti-CD40 antibodies were added into 96 well plates and incubated respectively. After washing with TBST solution, the anti-human IgG-HRP antibody was added and incubated at RT. After washing with PBST, TMB was added into each well for development. Plates were read for the absorbance at 450 nm.

The target of a further assay is T5, human TNFRSF11A (human, UniProt Q9Y6Q6 30-212).
T5 construct: Bought protein coated on the ELISA plate; also called TNFRSF11A (Sino biological, 16078-h08h)
T5 sequence (looked up): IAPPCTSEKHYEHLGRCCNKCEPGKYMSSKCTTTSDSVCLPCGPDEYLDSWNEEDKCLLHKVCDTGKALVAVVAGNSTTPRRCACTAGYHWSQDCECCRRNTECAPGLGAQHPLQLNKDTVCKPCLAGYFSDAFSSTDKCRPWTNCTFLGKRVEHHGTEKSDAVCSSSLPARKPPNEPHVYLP
The description is as above. Here is the method:
as §3

Assay [7] concerns the target T1, human CD40 extracellular domain …. The assay can be described thus: SPR, Biacore 8K; antibody on CM5 chip, hCD40 at various concentrations. Here is the method:
The binding affinity of the optimized anti-CD40 antibodies with human […] was characterized using Biacore 8K (GE). Anti-CD4 (antibodies were stabilized on sensor chip CM5 The affinities for hCD40 at various concentrations were measured. Using the SPR technology, the association and dissociation rates were measured, and binding affinity was determined.

Positions count from the first letter of the chain named.

T3 sequence (P25942 21-277 limits assumed): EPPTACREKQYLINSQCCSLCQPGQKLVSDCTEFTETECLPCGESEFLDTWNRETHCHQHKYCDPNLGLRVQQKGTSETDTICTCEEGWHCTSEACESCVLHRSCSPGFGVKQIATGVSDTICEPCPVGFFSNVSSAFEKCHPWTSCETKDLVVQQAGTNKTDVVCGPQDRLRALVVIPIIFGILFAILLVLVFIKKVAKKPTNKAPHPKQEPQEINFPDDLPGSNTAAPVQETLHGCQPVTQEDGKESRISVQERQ
T1 sequence (P25942 21-193): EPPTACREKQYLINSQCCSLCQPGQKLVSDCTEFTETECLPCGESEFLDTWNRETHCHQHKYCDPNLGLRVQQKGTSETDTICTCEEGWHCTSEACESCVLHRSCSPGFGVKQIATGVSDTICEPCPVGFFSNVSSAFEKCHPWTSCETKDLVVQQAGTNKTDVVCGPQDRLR

B1: D2 (antibody, V domains shown)
VH: EVHVKQSGAELVKPGASVKLSCTASGFNIKDAYMHWVKQRPEQGLEWIGRIDPANGNTKYDPKFQGKASITTDTSSNTAYLQLSSLTSEDTAVYYCTPNYYGSRYPFAYWGQGTTVTVSS
VL: DIVLTQSPAIMSASPGEKVSITCSASSSVSYMHWFQQKPGTSPKLWIYSTSNLASGVPARFSGSGSGTSYSLTISRMEADDAATYYCQQGSSYPLTFGAGTKLELK
notes: Full-length chimeric antibody: mouse variable domains with a human IgG1 or IgG4 heavy chain constant domain and a human kappa light chain constant domain; also called anti-CD40 antibody D2
For the molecule B1, the results for the 50% effective concentration (EC50) in assay [1] and in assay [2] were 0.193 µg/mL and 0.473 µg/mL, respectively. Moreover, the “IC50, HEK-Blue CD40L NF-κB activation assay (SEAP), Fc-3*G4S-CD40L stimulus” value (“IC50 … Fc-3*G4S-CD40L stimulus” below) with human CD40 on cells [3] worked out at 0.0171 µg/mL.

B2: D3 (antibody, V domains shown)
VH: B1 VH with H3Q, V4L, K5Q, A32S, S69T, T72A, T97V, S103A, R104A
VL: B1 VL with T5I, S20T, L45V, S62G, D80E
notes: Full-length chimeric antibody: mouse variable domains with a human IgG1 or IgG4 heavy chain constant domain and a human kappa light chain constant domain; also called anti-CD40 antibody D3
Turning to B2, the figures for the EC50 in [1] and in assay [2] were 0.224 µg/mL and 0.0743 µg/mL, respectively. For the same molecule, the “IC50 … Fc-3*G4S-CD40L stimulus” value in the assay with human CD40 on cells [3] worked out at 0.0224 µg/mL.

B3: D6 (antibody, V domains shown)
VH: QVQLQQSGAELVRPGVSVKISCKGSGYTFTDHAIHWVKQSHARRLEWIGAISTNYGAATYNQKFKGKATMTVDKSSSTAYMELARLTSEDSAIYYCARRGSHGDWFAYWGQGTLVTVSA
VL: B1 VL with V3E, S20T, A59V, R76S, D80E, Q88H, G90Y, S91H, S92R, Y93S
notes: Full-length chimeric antibody: mouse variable domains with a human IgG1 or IgG4 heavy chain constant domain and a human kappa light chain constant domain; also called anti-CD40 antibody D6
As for B3, the concentration for a half-maximal effect (EC50) was determined as 0.176 µg/mL in assay [1] and 0.243 µg/mL in assay [2]. The “IC50 … Fc-3*G4S-CD40L stimulus” value with human CD40 on cells [3] amounted to 0.00712 µg/mL.

B4: D7 (antibody, V domains shown)
VH: QIQLLQSGAELVKPGASVKLSCTASGFNIKDAYMHWVKQRPEQGLEWIGRIDPANGYTKSDPKFQGKATITSDTSSNTAYLQLSSLTSEDTAVYYCAPNYYGSRYPFAYWGQGTLVTVSS
VL: B1 VL with D1Q, S20T, L45I, S49F, D80E, S92T
notes: Full-length chimeric antibody: mouse variable domains with a human IgG1 or IgG4 heavy chain constant domain and a human kappa light chain constant domain; also called anti-CD40 antibody D7
Regarding B4, the values for the EC50 in assay [1] and in assay [2] were 0.261 µg/mL and 0.133 µg/mL, respectively. The “IC50 … Fc-3*G4S-CD40L stimulus” value in the assay with human CD40 on cells [3] is 0.017 µg/mL.

B5: D42 (antibody, V domains shown)
VH: QVQLVQSGAEVKKPGASVKVSCKASVYSFTGYTVNWVRQAPGQRLEWMGLIVPYNGGTTYNQKFKGRVTLTIDKSASTAYMELSSLRSEDTAVYYCASSRYSNPYAMDYWGQGTLVTVSS
VL: EIVMTQSPATLSVSPGERATLSCKASQNVHTRVAWYQQKPGQAPRLLIYLASDRRTGIPARFSGSGSGTEFTLTISSLQSEDFAVYYCLQHWNYPLTFGQGTKVEIK
notes: also called optimized anti-CD40 antibody D42
As to B5, the “EC50 (read off the curve)” value in [4] is around 0.1 µg/mL. For the same molecule, the concentration for a half-maximal effect (EC50 (read off the curve)) in assay [5] is around 0.2 µg/mL. Also, the “IC50, HEK-Blue CD40L NF-κB activation assay (SEAP), antibody as human IgG4” value (from here on “IC50 … as human IgG4”) in the assay with human CD40 on cells [6] was 0.00962 µg/mL. The binding result with human TNFR2 was “no binding (tested: 10 µg/mL)”. Moreover, in the assay with human TNFRSF11A, the binding result was “no binding (tested: 10 µg/mL)”. Further, in assay [7], the Kd amounted to 1.26 nM, the koff was 0.000277 s⁻¹ and the on-rate (kon) was determined as 221000 M⁻¹ s⁻¹.

B6: D33 (antibody, human IgG4, V domains shown)
VH: B5 VH with V52N, Y54L, R100Y, N103T
VL: B5 VL
notes: also called optimized anti-CD40 antibody D33
For the molecule B6, the “EC50 (read off the curve)” value in assay [4] is around 0.1 µg/mL. Further, in assay [5], the “EC50 (read off the curve)” value was around 0.2 µg/mL. The “IC50 … as human IgG4” value with human CD40 on cells [6] was found to be 0.0122 µg/mL. For the same molecule, the binding result in the assay with human TNFR2 is listed as “no binding (tested: 10 µg/mL)”. Besides, in the assay with human TNFRSF11A, the binding result was “no binding (tested: 10 µg/mL)”. In assay [7], the equilibrium dissociation constant (Kd) is 1.63 nM, the koff worked out at 0.000494 s⁻¹ and the on-rate (kon) is 304000 M⁻¹ s⁻¹.

B7: D47 (antibody, human IgG4, V domains shown)
VH: B5 VH with V52N, N55T, R100Y, M107S
VL: B5 VL with N93T
notes: also called optimized anti-CD40 antibody D47
With B7, the concentration giving a half-maximal response (EC50 (read off the curve)) was around 0.1 µg/mL in assay [4] and around 0.2 µg/mL in [5]. Further, in the assay with human CD40 on cells [6], the “IC50 … as human IgG4” value was determined as 0.0114 µg/mL. The binding result in the assay with human TNFR2 and with human TNFRSF11A was “no binding (tested: 10 µg/mL)” each time. Moreover, in assay [7], the equilibrium dissociation constant (Kd) was 1.59 nM. Also, the dissociation rate constant (koff) in assay [7] is 0.000303 s⁻¹. Also, the kon in assay [7] was 191000 M⁻¹ s⁻¹.

B8: D49 (antibody, human IgG4, V domains shown)
VH: B5 VH with V52N, T59S, R100P
VL: B5 VL with N93T
notes: also called optimized anti-CD40 antibody D49
As to B8, the “EC50 (read off the curve)” value in assay [4] was around 0.1 µg/mL. Besides, the concentration for a half-maximal effect (EC50 (read off the curve)) in assay [5] was around 0.2 µg/mL. Also, the “IC50 … as human IgG4” value in the assay with human CD40 on cells [6] stood at 0.0112 µg/mL. For the same molecule, in [7], the Kd came out at 1.5 nM, the dissociation rate constant (koff) is 0.000295 s⁻¹ and the kon amounted to 196000 M⁻¹ s⁻¹.

B9: D5 (antibody, V domains shown)
VH: EVQLQQSGAELVSPGVSVKISCKGSGYTFTDHGMHWVKQSHAKSLEWIGVISTSYGVATYNQKFKGKATLSVDKSSSTAYLELARLTSEDSAIYYCARRDSKSPFDYWGQGTTLTVSS
VL: QIVLTQSPAIMSASPGEKITITCSASSSISSNYLHWYQQKPGFSPKLLIYRTSNLASGVPARFSGSGSGTSYSLTISSMEAEDAATYYCHQYHRSPLTFGAGTKLELK
notes: Full-length chimeric antibody: mouse variable domains with a human IgG1 or IgG4 heavy chain constant domain and a human kappa light chain constant domain; also called anti-CD40 antibody D5
As to B9, the half-maximal effective concentration (EC50) in assay [1] worked out at 0.274 µg/mL; in assay [2], 0.627 µg/mL. For the same molecule, the “IC50 … Fc-3*G4S-CD40L stimulus” value with human CD40 on cells [3] was found to be 0.0142 µg/mL.

B10: D1 (antibody, V domains shown)
VH: EVQLQQSGPDLVKPGASMKISCKASVYSFTGYTVNWVKQSHGKSLEWIGLINPYNGGTTYNQKFKGKATLTIDKSSTTAYMELLSLTSEDSAVYYCASSYYSNPYAMDYWGQGTSVTVSS
VL: DIVLNQSQKFMSTSVGDRVSITCKASQNVHTAVAWYQQKPGQSPKALIYLASDRRTGIPDRFTGSGSGTDFTLTIDNVQSEDLADYFCLQHWNYPLTFGAGTKLELK
notes: Full-length chimeric antibody: mouse variable domains with a human IgG1 or IgG4 heavy chain constant domain and a human kappa light chain constant domain; also called anti-CD40 antibody D1; mouse antibody D1
Regarding B10, the EC50 in assay [1] worked out at 0.236 µg/mL; in [2], 0.227 µg/mL. Also, the “IC50 … Fc-3*G4S-CD40L stimulus” value with human CD40 on cells [3] was determined as 0.0215 µg/mL.

The values are drawn from patent publication US20240343817A1 (STAIDSON BEIJING BIOPHARMACEUTICALS, published 2024).
